# Assay results taken from patent US20130129730A1 (Amgen, published 2013).
# T1: human EpCAM (human, UniProt P16422 24-314)
# T1 construct: whole, on cells; also called Epithelial cell adhesion molecule; CD326
# T1 sequence (looked up): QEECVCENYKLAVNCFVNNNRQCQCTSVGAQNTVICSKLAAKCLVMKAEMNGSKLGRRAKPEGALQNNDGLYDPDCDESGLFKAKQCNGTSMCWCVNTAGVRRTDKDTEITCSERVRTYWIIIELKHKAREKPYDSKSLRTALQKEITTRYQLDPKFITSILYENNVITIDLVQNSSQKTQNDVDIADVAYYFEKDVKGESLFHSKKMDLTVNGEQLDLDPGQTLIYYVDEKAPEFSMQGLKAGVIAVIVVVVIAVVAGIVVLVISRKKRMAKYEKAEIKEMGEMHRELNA
# Biological target: T1, human EpCAM
# Assay: flow cytometry, scFv periplasmic preparation on human EpCAM transfected CHO cells
# Method: Periplasmic preparations of E. coli clones producing the scFv molecules EpCAM 4-7, PM74-G3, PM52-H3, PM52-C3, PM75-A10 and PM91-B6 are used to examine specific binding to human PSMA or human EpCAM transfected cell lines. As negative control untransfected CHO cell are used.
# For flow cytometry 2,5×10⁵ cells are incubated with 50 μl of scFv periplasmic preparation. The binding of scFv to the cells is detected with an anti-His antibody (Penta-His Antibody, BSA free, Qiagen GmbH, Hilden, FRG) at 2 μg/ml in 50 μl PBS with 2% FCS. As a second step reagent a R-Phycoerythrin-conjugated affinity purified F(ab′)2 fragment, goat anti-mouse IgG (Fc-gamma fragment specific), diluted 1:100 in 50 μl PBS with 2% FCS (Dianova, Hamburg, FRG) is used. The samples are measured on a FACSscan (BD biosciences, Heidelberg, FRG).
# Flow cytometry is performed on a FACS-Calibur apparatus; the CellQuest software is used to acquire and analyze the data (Becton Dickinson biosciences, Heidelberg). FACS staining and measuring of the fluorescence intensity are performed as described in Current Protocols in Immunology (Coligan, Kruisbeek, Margulies, Shevach and Strober, Wiley-Interscience, 2002).
row,Binder,binding result
1,"scFv PM74-G3 (scFv, Tested as periplasmic preparation from E. coli; also called PM74G3-VH-VL; not shown: His6-tag) scFv: QVQLVQSGAEVKKPGASVKLSCKASGYTFTYFDINWVRQAPEQGLEWMGGISPGDGNTNYNENFKGRVTMTIDTSSSTAYIELSRLTSDDTAVYYCARDGNFPYYAMDSWGQGTTVTVSSGGGGSGGGGSGGGGSDVVMTQTPLSLPVSLGDQASISCRSSQSLVHSNGNTYLHWYLQKPGQSPKLLIYKVSNRFSGVPDRFSGSGSGTDFTLKISRVEAEDLGVYFCSQSTHVPYTFGGGTKLEIKDYKDDDDK",no binding
2,"scFv PM52-C3 (scFv, Tested as periplasmic preparation from E. coli; also called PM52C3-VH-VL; not shown: His6-tag) scFv: QVQLVQSGAEVKKPGASVKLSCKASGYTFTYFDINWVRQTPEQGLEWMGGISPGDGNTNYNENFKGRVTMTRDTSSSTAYMELSRLRSDDTAVYYCARDGNFPYYAMDSWGQGTTVTVSSGGGGSGGGGSGGGGSDVVMTQSPLSLPVTLGEPASISCRSSQSLVYSNGNTYLHWYQQKPGQSPRLLIYKVSNRFSGVPDRFSGSGSGTDFTLKISRVEAEDVGVYFCSQSTHVPYTFGQGTKLEIKDYKDDDDK",no binding
3,"scFv PM52-H3 (scFv, Tested as periplasmic preparation from E. coli; also called PM52H3-VH-VL; not shown: His6-tag) scFv: QVQLVQSGAEVKKPGASVKLSCKASGYTFTYFDINWVRQTPEQGLEWMGGISPGDGNTNYNENFKGRVTMTRDTSKSTAYMELSRLRSDDTAVYYCARDGNFPYYAMDSWGQGTTVTVSSGGGGSGGGGSGGGGSDVVMTQSPLSLPVTLGEPASISCRSSQSLVYSNGNTYLHWYQQKPGQSPRLLIYKVSNRFSGVPDRFSGSGSGTDFTLKISRVEAEDVGVYFCSQSTHVPYTFGQGTKLEIKDYKDDDDK",no binding
4,"scFv PM75-A10 (scFv, Tested as periplasmic preparation from E. coli; also called PM75A10-VH-VL; not shown: His6-tag) scFv: QVQLVQSGAEVKKPGASVKLSCKASGYTFTYFDINWVRQTPEQGLEWMGGISPGDGNTNYNENFKGRVTMTRDTSSSTAYMELSRLRSDDTAVYYCARDGNFPYYAMVNWGQGTTVTVSSGGGGSGGGGSGGGGSDVVMTQSPLSLPVTLGEPASISCRSSQSLVYSNGNTYLHWYQQKPGQSPRLLIYKVSNRFSGVPDRFSGSGSGTDFTLKISRVEAEDVGVYFCSQSTHVPYTFGQGTKLEIKDYKDDDDK",no binding
5,"scFv PM91-B6 (scFv, Tested as periplasmic preparation from E. coli; also called PM91B6-VH-VL; not shown: His6-tag) scFv: QVQLVQSGAEVKKPGASVKLSCKASGYTFTYFDINWVRQTPEQGLEWMGGISPGDGNTNYNENFKGRVTMTRDTSSSTAYMELSRLRSDDTAVYYCARDGNFPYYALTNWGQGTTVTVSSGGGGSGGGGSGGGGSDVVMTQSPLSLPVTLGEPASISCRSSQSLVYSNGNTYLHWYQQKPGQSPRLLIYKVSNRFSGVPDRFSGSGSGTDFTLKISRVEAEDVGVYFCSQSTHVPYTFGQGTKLEIKDYKDDDDK",no binding
